Measured values from publication PMC3894725 (Nature, 2012).

Target: the molecule itself
Assay: crystal structure

B1: human pyruvate kinase M2 (His6-hPKM2) (enzyme)
chain: not shown
  stoichiometry N: 4
